# Measured values: US20230285583A1, “LIQUID FORMULATION OF LONG-ACTING CONJUGATE OF GLUCAGON, GLP-1, AND GIP TRIGONAL AGONIST” (HANMI PHARM, CO., LTD., priority 2020, published 2023)
# Bridge positions count the residues as written; N and C are the ends. Square brackets hold non-standard residues; d marks the D form. Ends that are not written are not given here. * marks the point of attachment. Acetyl(2-(4-imidazolyl)) = O=C(Cc1c[nH]cn1)*; Aib = CC(C)(N)C(=O)O
# T1: human GIP receptor (human, UniProt P48546 22-466)
# T1 sequence (looked up): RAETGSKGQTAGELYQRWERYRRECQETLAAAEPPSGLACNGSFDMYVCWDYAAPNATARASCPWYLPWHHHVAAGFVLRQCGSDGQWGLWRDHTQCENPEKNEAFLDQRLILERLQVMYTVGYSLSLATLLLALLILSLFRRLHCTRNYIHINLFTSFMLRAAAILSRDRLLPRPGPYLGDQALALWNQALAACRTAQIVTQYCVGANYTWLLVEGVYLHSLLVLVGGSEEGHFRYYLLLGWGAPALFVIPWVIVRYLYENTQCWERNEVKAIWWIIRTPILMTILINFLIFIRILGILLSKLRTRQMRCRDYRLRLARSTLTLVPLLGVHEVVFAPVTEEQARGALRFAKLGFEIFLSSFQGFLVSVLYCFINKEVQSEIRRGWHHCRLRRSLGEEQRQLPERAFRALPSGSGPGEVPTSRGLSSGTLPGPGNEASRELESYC
# Target: human GLP-1 receptor (human, UniProt P43220 24-463)
# Test: cell-based or functional assay
# human GLP-1 receptor, sequence (P43220 24-463): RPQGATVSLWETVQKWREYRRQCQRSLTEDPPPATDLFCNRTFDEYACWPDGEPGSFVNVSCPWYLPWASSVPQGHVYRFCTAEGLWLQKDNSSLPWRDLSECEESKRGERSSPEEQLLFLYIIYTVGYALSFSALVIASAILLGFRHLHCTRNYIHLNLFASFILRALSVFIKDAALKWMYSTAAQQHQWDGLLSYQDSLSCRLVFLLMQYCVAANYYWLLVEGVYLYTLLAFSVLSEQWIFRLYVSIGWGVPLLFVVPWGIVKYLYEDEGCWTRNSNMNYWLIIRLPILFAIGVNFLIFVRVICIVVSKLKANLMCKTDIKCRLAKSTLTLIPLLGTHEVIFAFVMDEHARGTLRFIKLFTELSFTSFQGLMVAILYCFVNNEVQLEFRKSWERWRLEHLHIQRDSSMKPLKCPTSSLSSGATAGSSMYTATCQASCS
row,Binder,In Vitro Activity Compared to Native Peptide (%) vs. GLP-1 (relative titer from cAMP EC50) [%]
1,H[Aib]QGTFTSDYSKYLDEKRQKEFVQWLLDTKC (bridge 16-20; not fully specified (bridges)) [trigonal agonist of SEQ ID NO: 33],51
2,Y[Aib]QGTFTSDYSKCLDEKRAKDFVQWLLDHHPSSGQPPPS (bridge 16-20; not fully specified (bridges); ends not checked) [trigonal agonist of SEQ ID NO: 25],15.1
3,Y[Aib]QGTFTSDCSKYLDERAAKDFVQWLLDHHPSSGQPPPS (bridge 16-20; not fully specified (bridges); ends not checked) [trigonal agonist of SEQ ID NO: 27],11.5
4,Y[Aib]QGTFTSDYSKYLDEKAAKDFVQWLLDHHPSSGQPPPSC (bridge 16-20; not fully specified (bridges)) [trigonal agonist of SEQ ID NO: 32],38.7
5,[Acetyl(2-(4-imidazolyl))][Aib]QGTFTSDYSKYLDECRAKEFVQWLLDHHPSSGQPPPS (bridge 16-20; not fully specified (bridges)) [trigonal agonist of SEQ ID NO: 28],22.6
6,H[Aib]QGTFTSDYSKYLDEKAQKEFVQWLLDTC (bridge 16-20; not fully specified (bridges)) [trigonal agonist of SEQ ID NO: 3],142
7,H[Aib]QGTFTSDYSKCLDEKRAKEFVQWLLDHHPSSGQPPPS (bridge 16-20; not fully specified (bridges)) [trigonal agonist of SEQ ID NO: 20],95.4
8,Y[Aib]QGTFTSDYSKYLDECAAKDFVQWLLDHHPSSGQPPPS (bridge 16-20; not fully specified (bridges)) [trigonal agonist of SEQ ID NO: 22],28.5
9,Y[Aib]QGTFTSDYSKCLDERAAKEFVQWLLDHHPSSGQPPPS (bridge 16-20; not fully specified (bridges)) [trigonal agonist of SEQ ID NO: 24],24.3
10,[Acetyl(2-(4-imidazolyl))][Aib]QGTFTSDYSKCLDEKRAKEFVQWLLDHHPSSGQPPPS (bridge 16-20; not fully specified (bridges)) [trigonal agonist of SEQ ID NO: 29],12.9
11,Y[Aib]QGTFTSDYSKYLDERACKDFVQWLLDHHPSSGQPPPS (bridge 16-20; not fully specified (bridges); ends not checked) [trigonal agonist of SEQ ID NO: 26],90.1
12,Y[Aib]QGTFTSDYSKYLDEKRAKDFVQWLLDHHPSSGQPPPSC (bridge 16-20; not fully specified (bridges)) [trigonal agonist of SEQ ID NO: 31],10.3
13,Y[Aib]QGTFTSDYSKYLDEKAAKEFVQWLLDHHPSSGQPPPSC (bridge 16-20; not fully specified (bridges)) [trigonal agonist of SEQ ID NO: 30],35.1
14,Y[Aib]QGTFTSDYSKYLDECRAKDFVQWLLDHHPSSGQPPPS (bridge 16-20; not fully specified (bridges)) [trigonal agonist of SEQ ID NO: 21],15.8
15,Y[Aib]QGTFTSDYSKYLDECAAKEFVQWLLDHHPSSGQPPPS (bridge 16-20; not fully specified (bridges)) [trigonal agonist of SEQ ID NO: 19],64.6
16,Y[Aib]QGTFTSDYSKCLDEKAAKEFVQWLLDHHPSSGQPPPS (bridge 16-20; not fully specified (bridges)) [trigonal agonist of SEQ ID NO: 23],27.9

# Target: T1, human GIP receptor
# Test: cell-based or functional assay
row,Binder,In Vitro Activity Compared to Native Peptide (%) vs. GIP (relative titer from cAMP EC50) [%]
1,H[Aib]QGTFTSDYSKYLDEKRQKEFVQWLLDTKC (bridge 16-20; not fully specified (bridges)) [trigonal agonist of SEQ ID NO: 33],0.12
2,Y[Aib]QGTFTSDYSKCLDEKRAKDFVQWLLDHHPSSGQPPPS (bridge 16-20; not fully specified (bridges); ends not checked) [trigonal agonist of SEQ ID NO: 25],64.4
3,Y[Aib]QGTFTSDCSKYLDERAAKDFVQWLLDHHPSSGQPPPS (bridge 16-20; not fully specified (bridges); ends not checked) [trigonal agonist of SEQ ID NO: 27],1.6
4,Y[Aib]QGTFTSDYSKYLDEKAAKDFVQWLLDHHPSSGQPPPSC (bridge 16-20; not fully specified (bridges)) [trigonal agonist of SEQ ID NO: 32],35.5
5,[Acetyl(2-(4-imidazolyl))][Aib]QGTFTSDYSKYLDECRAKEFVQWLLDHHPSSGQPPPS (bridge 16-20; not fully specified (bridges)) [trigonal agonist of SEQ ID NO: 28],3
6,H[Aib]QGTFTSDYSKYLDEKAQKEFVQWLLDTC (bridge 16-20; not fully specified (bridges)) [trigonal agonist of SEQ ID NO: 3],0.8
7,H[Aib]QGTFTSDYSKCLDEKRAKEFVQWLLDHHPSSGQPPPS (bridge 16-20; not fully specified (bridges)) [trigonal agonist of SEQ ID NO: 20],11.6
8,Y[Aib]QGTFTSDYSKYLDECAAKDFVQWLLDHHPSSGQPPPS (bridge 16-20; not fully specified (bridges)) [trigonal agonist of SEQ ID NO: 22],39.8
9,Y[Aib]QGTFTSDYSKCLDERAAKEFVQWLLDHHPSSGQPPPS (bridge 16-20; not fully specified (bridges)) [trigonal agonist of SEQ ID NO: 24],62.8
10,[Acetyl(2-(4-imidazolyl))][Aib]QGTFTSDYSKCLDEKRAKEFVQWLLDHHPSSGQPPPS (bridge 16-20; not fully specified (bridges)) [trigonal agonist of SEQ ID NO: 29],1
11,Y[Aib]QGTFTSDYSKYLDERACKDFVQWLLDHHPSSGQPPPS (bridge 16-20; not fully specified (bridges); ends not checked) [trigonal agonist of SEQ ID NO: 26],94.7
12,Y[Aib]QGTFTSDYSKYLDEKRAKDFVQWLLDHHPSSGQPPPSC (bridge 16-20; not fully specified (bridges)) [trigonal agonist of SEQ ID NO: 31],11.7
13,Y[Aib]QGTFTSDYSKYLDEKAAKEFVQWLLDHHPSSGQPPPSC (bridge 16-20; not fully specified (bridges)) [trigonal agonist of SEQ ID NO: 30],18
14,Y[Aib]QGTFTSDYSKYLDECRAKDFVQWLLDHHPSSGQPPPS (bridge 16-20; not fully specified (bridges)) [trigonal agonist of SEQ ID NO: 21],17.2
15,Y[Aib]QGTFTSDYSKYLDECAAKEFVQWLLDHHPSSGQPPPS (bridge 16-20; not fully specified (bridges)) [trigonal agonist of SEQ ID NO: 19],92.9
16,Y[Aib]QGTFTSDYSKCLDEKAAKEFVQWLLDHHPSSGQPPPS (bridge 16-20; not fully specified (bridges)) [trigonal agonist of SEQ ID NO: 23],107

# Target: human GCG receptor (human, UniProt P47871 26-477)
# Test: cell-based or functional assay
# human GCG receptor, sequence (P47871 26-477): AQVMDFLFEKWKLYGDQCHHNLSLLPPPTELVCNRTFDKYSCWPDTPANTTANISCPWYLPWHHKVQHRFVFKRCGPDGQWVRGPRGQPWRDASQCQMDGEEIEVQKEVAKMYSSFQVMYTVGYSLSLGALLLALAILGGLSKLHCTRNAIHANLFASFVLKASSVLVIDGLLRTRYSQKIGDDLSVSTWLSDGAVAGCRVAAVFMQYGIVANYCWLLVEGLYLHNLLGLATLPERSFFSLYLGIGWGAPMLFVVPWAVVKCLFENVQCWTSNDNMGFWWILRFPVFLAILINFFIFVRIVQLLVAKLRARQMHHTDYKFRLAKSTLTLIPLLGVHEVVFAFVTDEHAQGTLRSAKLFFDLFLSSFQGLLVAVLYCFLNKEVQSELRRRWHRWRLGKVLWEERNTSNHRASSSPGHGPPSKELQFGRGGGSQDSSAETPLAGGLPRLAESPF
row,Binder,In Vitro Activity Compared to Native Peptide (%) vs. Glucagon (relative titer from cAMP EC50) [%]
1,H[Aib]QGTFTSDYSKYLDEKRQKEFVQWLLDTKC (bridge 16-20; not fully specified (bridges)) [trigonal agonist of SEQ ID NO: 33],14
2,Y[Aib]QGTFTSDYSKCLDEKRAKDFVQWLLDHHPSSGQPPPS (bridge 16-20; not fully specified (bridges); ends not checked) [trigonal agonist of SEQ ID NO: 25],71.3
3,Y[Aib]QGTFTSDCSKYLDERAAKDFVQWLLDHHPSSGQPPPS (bridge 16-20; not fully specified (bridges); ends not checked) [trigonal agonist of SEQ ID NO: 27],1
4,Y[Aib]QGTFTSDYSKYLDEKAAKDFVQWLLDHHPSSGQPPPSC (bridge 16-20; not fully specified (bridges)) [trigonal agonist of SEQ ID NO: 32],12.2
5,[Acetyl(2-(4-imidazolyl))][Aib]QGTFTSDYSKYLDECRAKEFVQWLLDHHPSSGQPPPS (bridge 16-20; not fully specified (bridges)) [trigonal agonist of SEQ ID NO: 28],5.4
6,H[Aib]QGTFTSDYSKYLDEKAQKEFVQWLLDTC (bridge 16-20; not fully specified (bridges)) [trigonal agonist of SEQ ID NO: 3],0.7
7,H[Aib]QGTFTSDYSKCLDEKRAKEFVQWLLDHHPSSGQPPPS (bridge 16-20; not fully specified (bridges)) [trigonal agonist of SEQ ID NO: 20],25.2
8,Y[Aib]QGTFTSDYSKYLDECAAKDFVQWLLDHHPSSGQPPPS (bridge 16-20; not fully specified (bridges)) [trigonal agonist of SEQ ID NO: 22],46.2
9,Y[Aib]QGTFTSDYSKCLDERAAKEFVQWLLDHHPSSGQPPPS (bridge 16-20; not fully specified (bridges)) [trigonal agonist of SEQ ID NO: 24],9.6
10,[Acetyl(2-(4-imidazolyl))][Aib]QGTFTSDYSKCLDEKRAKEFVQWLLDHHPSSGQPPPS (bridge 16-20; not fully specified (bridges)) [trigonal agonist of SEQ ID NO: 29],0.9
11,Y[Aib]QGTFTSDYSKYLDERACKDFVQWLLDHHPSSGQPPPS (bridge 16-20; not fully specified (bridges); ends not checked) [trigonal agonist of SEQ ID NO: 26],12.7
12,Y[Aib]QGTFTSDYSKYLDEKRAKDFVQWLLDHHPSSGQPPPSC (bridge 16-20; not fully specified (bridges)) [trigonal agonist of SEQ ID NO: 31],47.6
13,Y[Aib]QGTFTSDYSKYLDEKAAKEFVQWLLDHHPSSGQPPPSC (bridge 16-20; not fully specified (bridges)) [trigonal agonist of SEQ ID NO: 30],8.5
14,Y[Aib]QGTFTSDYSKYLDECRAKDFVQWLLDHHPSSGQPPPS (bridge 16-20; not fully specified (bridges)) [trigonal agonist of SEQ ID NO: 21],172
15,Y[Aib]QGTFTSDYSKYLDECAAKEFVQWLLDHHPSSGQPPPS (bridge 16-20; not fully specified (bridges)) [trigonal agonist of SEQ ID NO: 19],60.1
16,Y[Aib]QGTFTSDYSKCLDEKAAKEFVQWLLDHHPSSGQPPPS (bridge 16-20; not fully specified (bridges)) [trigonal agonist of SEQ ID NO: 23],8.8
